For orientation: Kd means the equilibrium constant for the complex coming apart. A low value points to higher affinity.

This is an account of results in paper PMC12167710 (Nature Biotechnology, 2024).

Substitutions are numbered along the chain they refer to.

The target of experiment [1] is T1, receptor-binding domain (RBD) of the wild-type SARS-CoV-2 spike protein (SARS-CoV-2, UniProt P0DTC2 333-527).
T1 construct: also called SARS-CoV-2 RBD
The experiment can be described thus: BLI. Conditions: both partners purified.

Experiment [2] addresses T1, receptor-binding domain (RBD) of the …. The experiment can be described thus: cell-based or functional assay.

B1: hRBD2 (antibody, V domains shown)
VH: QVQLVQSGSELKKPGASVKVSCKASGYTFSNYAINWVRQAPGQGLEWMGWINTNTGHPTYAQGFTGRFVFSLDASVTTAYLQISSLKAEDTAVYYCARVGRTAIAALDDAFDIWGQGTMVTVSS
VL: not shown
B1 registered a Kd in experiment [1] of 0.0652 nM. This molecule yielded an other in experiment [2] of 91.7 ng/mL.

B2: hRBD8 (antibody, V domains shown)
VH: QVQLQQWGAGRLKPSETLSLTCAVYGGSFSGYYWSWIRQPPGKGLEWIGEIDHSGSTNYNSSLKSRVTISVDTSKKWFSLKLSSVTAADTAVYYCARAHLIGDCGGGRCYSGPDPSNWFDPWGQGTLVTVSS
VL: SSELTQDPAVSVALGQTVRITCQGDSLRSYYASWYQQKPGQAPILVIYGKDNRPSGIPDRFSGSSSENTASLTITGAQAEDEADYYCNCRDTSGNHPVFGGGTKLTVL
Take B2: the Kd in experiment [1] is 9.74 nM. The molecule also had an other in experiment [2] of 49.6 ng/mL.

B3: hRBD12 (antibody, V domains shown)
VH: EVQLVESGGGLVQPGGSLRLSCAASGLTVSSNYMSWVRQAPGKGLEWVSVIYSGGSTYYADSVKGRFTISRDNSKNTLYLLMNSLRAEDTAVYYCARDLQQLGGMDVWGQGTTVTVSS
VL: not shown
B3 came in with an equilibrium dissociation constant (Kd) in experiment [1] of 0.219 nM. The other in experiment [2] came out at 20.8 ng/mL.

B4: hRBD5 (antibody, V domains shown)
VH: QVQLQQWGAGLLQPSETLSLTCAVYGGSFSDYYWSWIRQPPGRGLEWIGEIDHSGSTNYNPSLKSRVTILVDTSKNQFSLKLSSVTAADTAVYYCARAHLIGHCGDGGCYSGPDPSSWFDPWGQGTLVIVSS
VL: SSELTQDPAVSVALGQTVRITCQGDSLRRYFASWYQQKPGQAPVLVIYGKNIRPSGIPDRFSGSSSGNTGSLTITGAQAEDEADYYCHSRDSSGHHPLFGGGTKLTVL
Turning to B4, the affinity in experiment [1], expressed as Kd, was 0.127 nM. Further, the other in experiment [2] was 10.7 ng/mL.

B5: hRBD6 (antibody, V domains shown)
VH: QVQLQQWGAGLLKPSETLSLSCAVYGGAFSDYYWSWIRQPPGKGLEWIGEIDLSGSTNYNPSLKSRVTISVDTSKNQFSLKLISVTAADTAVYYCARTHLIGYCSGGSCYSGPDPSNWFDPWGQGTLVTVSS
VL: B2 VL with I44V, D51N, E67G, C89S, N95H
In turn, B5 registered a Kd in experiment [1] of 5.09 nM. This molecule also displayed an other in experiment [2] of 32.7 ng/mL.

B6: hRBD13 (antibody, V domains shown)
VH: QVQLVESGGGVVQPGRSLRLSCAVSGFTFRNYGMDWVRQAPGKGLEWVAVISYDGSNKYYADSVKGRFTISRDNSKNTLFLHLNSLRAEDTAVYYCAKAGGGPYCGGGNCYMHYFDYWGQGTQVTVSS
VL: DIQMTQSPSSLSASVGDRVTITCQASQDINNYLNWYQQKPGKAPKLLIYDASNLETGVPLRFSGSGSATHFSFTISSLQPEDIATYYCQQYDHLPCTFGQGTKLEIR
Take B6: the Kd in experiment [1] was less than 0.001 nM. Further, in experiment [2], the other stood at 48600 ng/mL.

B7: hRBD15 (antibody, V domains shown)
VH: QVQLVQSGAEVKKPGASVKVSCKASGYTFTSQYMHWVRQAPGQGLEWMGIINPSGGSTSYAQKFQGRVTMTSDTSTSTVYMELSSLRSEDTAVYYCARDIYFVPARGGFDPWGQGTLVTVSS
VL: EIVLTQSPGTLSLSPGERATLSCRASQSIISSYLAWYQQKPGQAPRLLIYGASSRATGIPDRFSGSGSGTDFTLTISRLEPEDFAVYYCQQSGSAPRYTFGQGTKLEIK
As for B7, the Kd in experiment [1] worked out at 0.0382 nM. Also, the other in experiment [2] stood at 64400 ng/mL.

B8: hRBD9 (antibody, V domains shown)
VH: EVQLVESGGGLIQPGGSLRLSCAASGLTVSSNYMNWVRQAPGKGLEWVSVLYSGGSTYYADSVKGRFTISRDNSKNTLYLQMNSLRAEDTAVYYCARDLVAYGMDVWGQGTTVTVSS
VL: DIQLTQSPSFLSASVGDRVTITCRASQGISSDLAWYQQKPGKAPKLLIYAASTLQSGVPSRFSGSGSGTEFTLTISSLQPEDFATYYCQQLNSYPTFGQGTRLEIK
For the molecule B8, in experiment [1], binding was characterised by a dissociation constant (Kd) of 0.126 nM. The molecule further returned an other in experiment [2] of 20.2 ng/mL.

B9: hRBD3 (antibody, V domains shown)
VH: QLQLQESGPRLVRPSETLSLTCTVSGGSINSGTHYCGWIRQSPGKGLEWIGSIYYSGTTYYNPSLKSRVTISVDTSKNQFSLKLSSVTAADTAVYFCARRRAGSYFKDLSDYWGQGTLVTVSS
VL: NFMLTQPHSVSESPGKTVTISCTRSSGSIASNYVQWYQQRPGGAPTTVIYEDNQRPSGVPDRFSGSIDTSSNSASLTISGLKTDDEADYYCQSYDSTNHEVFGGGTKLTVL
In turn, B9 showed a Kd in experiment [1] of less than 0.001 nM. In experiment [2], the other was 11.6 ng/mL.

B10: hRBD4 (antibody, V domains shown)
VH: QLQLQESGPGLVKPSETLSLTCTVSGGSISTSSHYCAWIRQPPGKGLEWIGSIYYRGSTYYNPSLKSRVTISVDTSKNHFSLKLSSVTAADTAVYYCARRRAGSYYKDLFDYWGQGTLVTVSS
VL: B9 VL with G43S, T69S, D84E, S96N, T97S
On to B10, for which, in experiment [1], the Kd worked out at 0.491 nM. The same molecule gave an other in experiment [2] of 8.9 ng/mL.
